Measured values published in the DeepSol protein solubility set.

Assay: soluble on expression in E. coli; label from the status in PepcDB or PDB records

Sequence	soluble on expression in E. coli
MTTPNTQLWEVFIRSRNGLAHKHVGSLHAADATLALQAARDIYTRRGEGLSIWVVPSNAITASDPAEAGMLFEPAESKIYRHPTFYEVPDEVGHM	not soluble
MTTRLEWAKASPDAYAAMLGLEKALAKAGLERPLIELVYLRTSQINGCAYCVNMHANDARKAGETEQRLQALCVWQETPYFTPRERAALAWTEQLARLSQGALPHGLLDELREHFDDKEIAELTLAVSAINAWNRFGVGMGMQPE	soluble
MTTSQMIADFTTLAIQAGGWMELDRLYLQNRLLSMIGEQELGEVDIRPVATPAADLAEQLCQVASANQLVKTEQQKEQFMVQLMDLLTPPPSVVNAFFAQHYAKEPQEATEYFYQLCQKNGTVIEQEEPVVFSTVYGDFLANKVHSEASKATLSAQSYPRCEWCMATEGYQGSQQFPATTNHRVIRMNLDGESWGFSFVKQAQYQQQGVIAFEKHQSAKRSIKTFQQLLKIVEVFPHYFAGIDADFEQNEHVYYQTGLQQFPLAEASISEYVELANYPLINAGMVNWPVETFRLEGPNASEVAQAANDIFEQWQMLKLPTDEIQIVARRKELLYVMDLIFSRPQAKPSLTLAEVQGLTTWNNQKTQALETVASAYQQRLKEASAFAETSEGKAAFLAMVAPVTH	not soluble
MTTTTTFKGVDPNSRNSSRVLRPPGGGSNFSLGFDEPTEQPVRKNKMASNIFGTPEENQASWAKSAGAKSSGGREDLESSGLQRRNSSEASSGDFLDLKGEGDIHENVDTDLPGSLGQSEEKPVPAAPVPSPVAPAPVPSRRNPPGGKSSLVLG	soluble
MTTYAALLRGINVGGNKKVPMAELRTLLQGLGYGGVATYLQSGNAVFTSDHGDEQSLAAEVGQAIEKRFGFTVDVLVRDHAYLKAVREACPFPAAELEAKQLHVTYFSGPVDAERFASLDQPAFLPEEFRLGDRALYLYAPDGLGRSKLGETLARPRLLKGIVATSRNWNTVVKLEELTGA	not soluble
MTVEEYQQTVAQWLEVAKDPHFNKAYTELTYKPMREMVTYLQDHDFKVYIVSGGGVDFMRTWAPEVYGIPEEQIIGSALKYKYDYNNSNPTVTKLGEILTIDDKAGKVENIQHIIGKKPVLAIGNSDGDHAMMQWATSQPNSMAMIVHHTDEAREWKYDR	not soluble
MTVEPFRNEPIETFQTEEARRAMREALRRVREEFGRHYPLYIGGEWVDTKERMVSLNPSAPSEVVGTTAKAGKAEAEAALEAAWKAFKTWKDWPQEDRSRLLLKAAALMRRRKRELEATLVYEVGKNWVEASADVAEAIDFIEYYARAALRYRYPAVEVVPYPGEDNESFYVPLGAGVVIAPWNFPVAIFTGMIVGPVAVGNTVIAKPAEDAVVVGAKVFEIFHEAGFPPGVVNFLPGVGEEVGAYLVEHPRIRFINFTGSLEVGLKIYEAAGRLAPGQTWFKRAYVETGGKDAIIVDETADFDLAAEGVVVSAYGFQGQKCSAASRLILTQGAYEPVLERVLKRAERLSVGPAEENPDLGPVVSAEQERKVLSYIEIGKNEGQLVLGGKRLEGEGYFIAPTVFTEVPPKARIAQEEIFGPVLSVIRVKDFAEALEVANDTPYGLTGGVYSRKREHLEWARREFHVGNLYFNRKITGALVGVQPFGGFKLSGTNAKTGALDYLRLFLEMKAVAERF	soluble
MTVRALLTPEIAPRMGIVLFRPGSELMPLFMQGRVLLEPEPERYSSFASGAVPAASQPLADDPAVRAVFRNEAVIRRAGGVECLESWLLREKGCQWPHSDWHSENMTTMRHAPGAIRLCWHCDNQLRDQFTERLESMATDNCARWVLSVVRRDLGFDDSHVVTMPELCWWLVRNDLADALPESAARKALRLPKPVVPSVTRESDLVPSVPATSIIQDKAKKVLALKVDPESPESFMLRPKRRRWVNEKYTRWVKTQPCACCGKPADDPHHLIGHGQGGMGTKAHDLFVLPLCRKHHDELHADTVTFEEKYGSQLELIFRFIDRALAIGVLA	not soluble
MTVSEIRVRKINPRAKIPKRQSEGAAGYDIHSVESGRIPPNGRKSVRTGLAWDVPQSVVGLVFGRSGLALRNWIEVVETCVHPGEDKELVITLVNNGREVFEYEESSRIAQLVFVPVLSCEIDLVESLDLTERGCLGFGSTGMK	not soluble
MTVTDLSKKPLLLLDHVTMQFGGLVAVDDFTNEIREGELVGLIGPNGAGKTTVFNVITGIYTPTKGRIVFNDIDITGLRPYQITHLGIARTFQNIRLFSDMTVLENVLVAQHHVLSNPDADRILVKHGKPRKGHGRFWFWRAVTKIGYLKKEKEMVERAKDLIKRVGLEKVMYEKASSLPYGEQRKLEIARALATEPKLILLDEPAAGMNPKETEDLMEFIKQIRKDFNLTVLLIEHDMKVVMGICERIIVMDYGRIIAEGTPKEIQNDPRVIEAYLGREWESV	soluble
MTVTLAGNPIEVGGHFPQVGEIVENFILVGNDLADVALNDFASKRKVLNIFPSIDTGVCATSVRKFNQQAAKLSNTIVLCISADLPFAQARFCGAEGIENAKTVSTFRNHALHSQLGVDIQTGPLAGLTSRAVIVLDEQNNVLHSQLVEEIKEEPNYEAALAVLA	soluble
MTVVTTADTSQLYALAARHGLKLHGPLTVNELGLDYRIVIATVDDGRRWVLRIPRRAEVSAKVEPEARVLAMLKNRLPFAVPDWRVANAELVAYPMLEDSTAMVIQPGSSTPDWVVPQDSEVFAESFATALAALHAVPISAAVDAGMLIRTPTQARQKVADDVDRVRREFVVNDKRLHRWQRWLDDDSSWPDFSVVVHGDLYVGHVLIDNTERVSGMIDWSEARVDDPAIDMAAHLMVFGEEGLAKLLLTYEAAGGRVWPRLAHHIAERLAFGAVTYALFALDSGNEEYLAAAKAQLAAAE	not soluble
MTWADEVLAGHPFVVAHRGASAARPEHTLAAYDLALKEGADGVECDVRLTRDGHLVCVHDRRLDRTSTGAGLVSTMTLAQLRELEYGAWHDSWRPDGSHGDTSLLTLDALVSLVLDWHRPVKIFVETKHPVRYGSLVENKLLALLHRFGIAAPASADRSRAVVMSFSAAAVWRIRRAAPLLPTVLLGKTPRYLTSSAATAVGATAVGPSLPALKEYPQLVDRSAAQGRAVYCWNVDEYEDIDFCREVGVAWIGTHHPGRTKAWLEDGRANGTTR	not soluble
MVALAILRVEKLKSFGNVGGSEKHTARLQDTPNADTTKKNIRLIGMEDNSSLEDLVKTKIANTTKHKPRKDAVLCSEMFLSASPEYFRPDDPSRAGEWNHERMVLFAGASRQWLINNYGDKCVRAELHLDEATPHIHAYIVPINDKTKQLSHKEMFGGNGRVGSIKLSKLQDSYASALAPLGIERGVKGSKATHTKVKEYYQAVNSEPLTAVWSNKKLAPQPLESATNYVARIQNDDQFHAINHQLADRAFMQERLERAEQRARASEKERQRLEKEVRSLELKTQQLRDLELLDVAWELGLDYERERWRGHGHIINIDGSKFYDFSPDQQKGGGGAIDLVMHVNQCNFRQAVVWLHERFGEAGVERAAIAHVKNRAADIIQAEPRPQFTPPVENKANWPAVERYLTQQRGIPSDCLQMLQNLGLLYADDQQNAVFVMRDLEGQTSGAFLRGTRGENNSFKGYSKGTKRSDSWFYFGLGGQATDKVAHVLLCSSPIEAVSRAMLEYFVRGNVPPERTLYMAVDNINSLPVERLQNVPNILVTFGKDQSTNAAAQRVLELLPQSQQVLSKAADWNQQLLEYGWQLRRQQYQQQDDELSILEHHHHHH	not soluble
MVAQNSVVVIGASGFGRESLDVLEAMKEAGHSLEIIGVVDDNPAAINLQRLAERKIEYLGTLKEWIEGSPKSCKYVLAIGNPTIRHKLSALLDKSGFDAFTAVHPSAVIGSQVVFGSGAVVCSGAVISTNVRLGVHVHINPNVTIGHDSILEDYVSINPAATISGEVLIMEETLIGAAATVLQGLTIGNRSLVGASSCVTKDISAGKVVKGIPARLEHHHHHH	soluble
MVASSCLSMNDHHLLYQNISQDLDLGALLSSEVIQSLWGGYGELVRLIFAKRSVIVKHVKLPKPSEHPRGWNTDRSHQRKLHSYQVEVSWYAHFSGVMDSHCRVPQGLKTFQSENEWLIVMEDLAEAGFPKVITDAKLEHLRACLTWLANFHARYIGVCSDKLWHTGTYWHLATRPDELEALQDTELKKAAQLIDQTLSQAKFKTLVHGDAKLANFCFEQDELSVAAVDFQYVGHGCAMKDVALFMSSAVKPERCAEMEVWVLDTYFAKLQQALMVYQPNLDPDEVEREWRPLFAVAWADFQRFVKGWSPDHWKINPYTEALTRRALAYLRK	not soluble
MVATVVNVQVKNEEKIETAPKKVVFDTKNLNLWYGEDHALKDINLSIHENEVTAIIGPSGCGKSTYLKTLNRMVELVPIVRTTGVIEYRERNIFDKSYPVEELRTHVGMVFQKPNPFPKSIYENVAYGPKIHGISDKKTLDEIVEKSLRGAAIWDELKDRLHDNAYGLSGGQQQRLCIARCLAIEPDVILMDEPTSALDPISTLKVEELIQELKKDFSIVIVTHNMQQAARISDKTAFFLSGEVVEYTDTNKLFTTPSDKRTEDYITGRFG	not soluble
MVDGKHRMVYNITRFSCPTFSLSASAAAVAGRLTPAVPQNTLSRKSCYGAATSAPSSSYNVMYQQQEDTGIDAFAQFGQQSQQYHPSPELSEQINASKCSPYLTEILVGCEQLIAEGEEDSPTWISAIRQRFEDPQMDEVSKKIGVKLIIEMAFTMEPNQFRTADPQNTFSNLLKTLSYEVKDFLRVFIVPTLGEYHEGRKQLENDSRVYMAVFYAEVFVKLTLDNGSRFDKIGAALADQIEEILKFQPKDEYMKCLLRAFKVAGAELDTSEDLKLRADHILTIMGGYAKGSPLLGDSVKAQIFSLIECRTRGWDRAAARGPVRSSAGAGGGGGCVADRGEHDSSFDDSTDNDLTEEERQFLESHLEQVESRRGAEEDYDEQEMMKEFGKFVKEELQQAELKSTSEMLQKLEIEKDTAGAATETDETTPKTEEK	not soluble
MVDIANEVGASESAIPPLKMLLLEGARQAALEAGLQNNSGILADTTFGQQALNDVTGQGWWIGRPVEMPGSYPLKLEHGDIGSQLVSWPQEHVVKCLVFYHPLDAESVRLEQEALIDEVYRACCQSGHDLLLEVILPRDAADQNEQYYPQIVERFYQLGILPDWWKLPPLSPDRWREISQHIEHYDPECRGILILGLDAPESELKSGFAAAADMPWVKGFAVGRTIFGEPSRQWLGGQLNDEQLIATVKQKYRMLIDYWREYRPAR	not soluble
MVDYHYFKSKLNHFYGRYVGYNQRPVFFDIDQTFPELNHITRHFPDIKREFENVQANVKEFPRYHDIDPGESAISNTTEKNWNVFMLYLLGYQLKEARLLCPELCNLLEGIPHLIQAFFSILEPGKSIPLHEGPYIGYLRYHLGIHVPQNNPPQILVNNQTYTWKEGEAVLFDDSWPHEVRNTSDDYRAVLIIDVLRPMPFLPQLVNQFVTHVIARYFYGRKVMKRAMQYGGEVKPLAL	not soluble
MVELCELHMMPEEDQWPDDIDARIAALNFCGEDSMLFESVDPSVSTDSLDSQQFRERCQMKKEDFQLAFADSGHWQSGINDNLTTWGRIRTSEPLDERTASAPDVWNVKRSDSARSPNRPNSLIANFVSGDATRFVDVNDNEIREANEEIIRKDRWRRDSARRCSSGGQNQKRTFADILEKNVTAPTSMAITSSDNEKPPKLDFLAMHHEMPSLCESFTASFRDAIIKMQKCEPLPSITSTNDFPLFFQEDSPDSGLGCSGPSHIEDWQSLSVLLPKHVAEACSFFKSNTQLLTSSTSKTAPQTSTNIVSNCIDRRISGISASANEACRTCYRVRRRIHPPVWAQTAQSKTVLCDCASTPTDTNFSFAPTTSTTRHQLRAKELSIVGLPIYAAKRTLVENVVEGVAAISRGDGSDLLVIAMRCLIEDGLQENVSAWTMIQTVTSKGPATKDVHSIVKQLEECSKTDNVKVEIFFEELIRENSLDCWLCYIVLKEKVLKTLYSENAFLLSASSEYRTLLWRMVDSLSLLPVIEARSDSVHQQFKSMQQWGGASRIASDSRVPKSSSFPARLSTAPSRRSRIPLSTSRISISSTTSTPRSARSPSTTSRIRVASIMGDFTLANFSLSDGEKVSVLSTRGGLARCVRLTTSHSKINNGVIPIEHLLFQ	not soluble
